The RNAGym collection of RNA variant scans (doi:10.1073/pnas.2313332121)

B1: TPR t1 (parent)
chain: GACCAAUCUGCCCUCAGAGCUCGAGAACAUCUUCGGAUGCAGAGGAGGCAGGCUUCGGUGGCGCGAUAGCGCCAACGUCCUCAACCUCCAAUGCAUCCCACCACAUGAUGAUGCCUGAAGAGCCUUGGUUUUUUG

Variants of: B1
Assay: polymerase ribozyme fitness, log enrichment relative to wild type (log ratio); higher = more active; in vitro selection for triplet polymerase activity
Procedure, shortened: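 Mutant libraries were PCR-built and transcribed for each subunit of a heterodimeric triplet polymerase ribozyme and selected for one round in triplicate at −7 °C, frozen, before gel excision of extended constructs and streptavidin-bead capture. Input and output libraries were Illumina-sequenced, keeping genotypes with ≥10 input reads and ≥1 read per output. Fitness is a logarithmic ratio of genotype to wild-type enrichment, in base 2, using inverse-variance-weighted replicate averages.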
For GACCAAUCUGCCCUUAGAGCUCGAGAACAUCUUCGGAUGCAGAGGAGGCAGGCUUCGGUGGCGCGAUAGCGCCAAAGUCCUCAACCACCAAUGCAUCCCAGCACAUGAUGAUGCCUGAAGAGCCUUGGUUUUUUG [C15U C76A U87A C101G], the “polymerase ribozyme fitness (log ratio)” value was -4.
In the case of GACCAAUCUGCCCUCAGGGCUCGAGAACAUCUUCGGAUGCAAAGGAGGCAGGCUUCGGUGGCUCGAUAGCGCCAACGUCCUCAACCUCCAAUGCAUCCCACCACAUGAUGAUACCUGAAGAGCCUUGGUUUAUUG [A18G G42A G63U G113A U132A], the “polymerase ribozyme fitness (log ratio)” value is reported as -3.41.
For GACCAAUCUGCCCUCAGAGCUCGAGAACAUUUUCGGAUGCAGAGGAGGCAGGUUUCGGUGGCGCGAUAGCGUCAACGUCCUCAACCUCCAAUGCAUCCCACCUCAUGAUGAUGCCUGAAGAGCCUUGGUUUUUUG [C31U C53U C72U A103U], the “polymerase ribozyme fitness (log ratio)” value was -6.73.
For GACCAAUCUGCCCUCAGAGCUCGAGAACAUCUUCGGAUGCAGAGGAGACAGGCUUCGGUGGCGCGAUAGCGCCAACGUCCUCAACGUCCAAUGCAUCCCACCACAUGAUGAUGCCUGCAGAGCCUUGGUUUUUUG [G48A C86G A118C], the “polymerase ribozyme fitness (log ratio)” value was -3.12.
In the case of GACCAAUCUGCCCUCAGAGCUCGAGAACAUCUUCGGAUGCAGAGGAGGCAGGCUUUGGUGGCGCGAUAGUGCCAACGUCCUCAACCUCCAAUGCAUCCCACCACAUGAUGAUGCCUGAAGAGCCUUGGUUUCUUG [C56U C70U U132C], the “polymerase ribozyme fitness (log ratio)” value is reported as -0.908.
For GACCAAUCUGCCCUCAGAGCUCGAGUACAUCUUCGGAUGCAGAGGAGGCAGGCUUCGGUGGCGCGAUAGCGCCAACGUCCUCAACCUCCAAUGCAUACCACCACAUGAUGAUGCCUGAAGUGCCUUGGUUUUUUG [A26U C97A A121U], the “polymerase ribozyme fitness (log ratio)” value was -5.2.
With GACCAAUCUGCACUCAGAGCUCGAGAACAUCUUCGGAUGCAGAGGAGGCAGGCUUCGGUGGCGCGAUAGCGCCAACGUCCUCAACCUCCAAUGCAUCCCACCACAUGAUGAUGCUUGAAGAGCCUUGGUUUUUUG [C12A C115U] the “polymerase ribozyme fitness (log ratio)” value was -1.21.
In the case of GACCAAUCUGCCCUCAUAGCUCGAGAACAUCUUCGGAUGCAGAGGAGGCAGGCUUCGGUGGCGCGAUAGCGCCAACGUCCUCAACCUCCAAUGCAGCACACCACAUGAUGAUUCCUGAAGAGCCUUGGUUUUUUG [G17U U96G C98A G113U], the “polymerase ribozyme fitness (log ratio)” value is reported as -6.9.
In the case of GACCAAUCUGCCCUCAGAGCUCGAGAACAUCUUCGGAUGCAGAGAAGGCAGGGUUCGGUGGCGCGAUAGCGCCAACGUCCUCGACCUCCAAUGCAUCCCACCACAUGAUGAUGCCUAAAGAGCCUUGGUUUUUUG [G45A C53G A83G G117A], the “polymerase ribozyme fitness (log ratio)” value is reported as -3.23.
For GACCACUCAGGCCUCAGAGCUCGAGAACAUCUUCGGAUGCAGAGGAGGCAGGCUUCGGUGGCGCGAUAGCGCCGACGUCCUCAACCUCCAAUGCAUCCCACCACAUGAUGAUGCCUGAAGAGCCUUGGUUUUUUG [A6C U9A C11G A74G], the “polymerase ribozyme fitness (log ratio)” value was -0.26.
For GACCAAUCUGCCCUUAGAGCUCGAGAACAUCUUUGGAUGCAGAGGAGGCAGGCUUCGGUGGCGCGAUAGCGCCAACGUCCUCAACCUCCAAUGCAUCCCACCACAUGAUGAUGCCUGAAGAGCCUUGGUUUUUUG [C15U C34U], the “polymerase ribozyme fitness (log ratio)” value was -4.93.
With GACCAAUCUGCCCUCAGAGCUCGAGAACAUCUUCGGAUGCAGAGGAGGCUGGCUGCGAUGGCGCGAUAGCGCCAACGUCCUCAACCUCCAAUGCAUCCCACCACAUGAUGAUGCCUGAAGAGCCUUGGUUUUUUG [A50U U55G G58A] the “polymerase ribozyme fitness (log ratio)” value was -5.41.
For GACCAAUCUGCCCUCAGAGCUCGAGACCAUCUUCGGAUGCAGAGGAGUCAGGCUUCGGUGGCGCGAUAGCGCCAACGUCCUCAACCUCCAAUGCAUCCCACCACAUGAUGAUGCCUGAAGAGCCUUGGUUUUUUG [A27C G48U], the “polymerase ribozyme fitness (log ratio)” value was -4.11.
With GACCAAUCUGCCCUCAGAGCUCGAGAACAUCUUCGGAUGCUGAGGCGGCAGGCUUCGGUGGCGCGAUAGCGCCAACGUCCUCAACCUCCAGUGCAUCCCACCACAUGAUGAAGCCUGAAGAGCCUUGGUUUUUUG [A41U A46C A91G U112A] the “polymerase ribozyme fitness (log ratio)” value was -3.27.
With GACCAAUCUACCCUCAGAGCUCGAGAACAUCUUCGGAUGCAGAGGAGGCAGGCUUCGGUGGCGCGAUAGCGCCAACGUCCUCAACUUCCAAUGCAUCCCACCACAUGAUGAAGCCUGAAGAGCCUUGGUUUUUUG [G10A C86U U112A] the “polymerase ribozyme fitness (log ratio)” value was 1.32.
In the case of GACCAAUCUGCCCUCAGAGCUCGAGAACAUCUUCGGAUGCAGAGGAGGCAGGCUUCGGUGGCGCGAUAGCGCCAACGUCCUCAACCUCCAAUGCAUCCCACCACAUGAUGGUGCCUAAAGAGCCUUGGUUUUUUG [A111G G117A], the “polymerase ribozyme fitness (log ratio)” value is reported as -1.65.
In the case of GACCAAUCUGCCCUCAGUGCUCGAGAACAUCUUCGGAUGCAGAGGAGGCCGGCUUCGGUGGCGCGAUAGAACCAACGUCCUCAACCUCCAAUGCAUCCCACCACAUGAUGAUGCCUGAAGAGUCUUGGUUUUUUG [A18U A50C C70A G71A C123U], the “polymerase ribozyme fitness (log ratio)” value is reported as -6.84.
For GACCAAUCUGCCCUCAGAGCUCGAGAACAUCUUCGGAUGCAGAGGAGGCAGGCUUCGGUGGCUCGAUAGCGCCAACGUCCUCAGCCUCCAAUGCAUCCCACCACAUGAUGAUGCCUGAAGAGCCUUGGUUUUUUG [G63U A84G], the “polymerase ribozyme fitness (log ratio)” value was -2.18.
For GACCAAUCUGGCCUCAGAGCUCGAGAACAUCUUCGGAUGCAGACGAGGCAGGCUUCGGUGGCGCGAUAGCGCCAACGUGCUCAACCUCCAAUGCAUCCCACCACAUGAUGAUGCCUGAAGAGCCUUGGUUUUUUG [C11G G44C C79G], the “polymerase ribozyme fitness (log ratio)” value was -2.6.
With GACCAAUCUGCCCUCAGUGCUCGAGAACAUCUUCGGAUGCAGACGAGGCAGGCUUCGGUGGCGCGAUAGCGCCAACGUCCUCAACCUCCAAAGCAUCCCACCACAUGAUGAUGCCUGAUGAGACUUGGUUUUUUG [A18U G44C U92A A119U C123A] the “polymerase ribozyme fitness (log ratio)” value was -5.44.
In the case of GGCCAAUCUGCCCUCAGAGCUCGAGAACAUCUUCGGAUGCAGAGGAGGCAGGCUUCGGUGGCGCGAUAGCGCCAACGAUCUCAACCUCCAAUGCAUCCCACCACAUGAUGAUGCCUGAAGAGCCUUGGUUUUUUG [A2G U78A C79U], the “polymerase ribozyme fitness (log ratio)” value is reported as 0.0458.
